These results are taken from paper PMC12747287, “Human O-GlcNAcase catalytic-stalk dimer anchors flexible histone binding domains” (Research Square, 2025).

This experiment has as its target T1, full length human O-GlcNAcase, long isoform (OGA-L) (human, UniProt O60502 1-916).
T1 construct: human O-GlcNAcase, long isoform (OGA-L), 103 kDa, full length; Dimer in the cryo-EM structure; The methods name an anti-c-Myc antibody beside the anti-His6 antibody; the 'C-term' tag may be c-Myc; also called hOGA; full-length OGA; source: E. coli TOP10 (pBAD/HisA, codon optimized), purified (Talon resin for the arrays; HisTrap and size-exclusion chromatography for cryo-EM); not shown: His6, …
T1 sequence (looked up): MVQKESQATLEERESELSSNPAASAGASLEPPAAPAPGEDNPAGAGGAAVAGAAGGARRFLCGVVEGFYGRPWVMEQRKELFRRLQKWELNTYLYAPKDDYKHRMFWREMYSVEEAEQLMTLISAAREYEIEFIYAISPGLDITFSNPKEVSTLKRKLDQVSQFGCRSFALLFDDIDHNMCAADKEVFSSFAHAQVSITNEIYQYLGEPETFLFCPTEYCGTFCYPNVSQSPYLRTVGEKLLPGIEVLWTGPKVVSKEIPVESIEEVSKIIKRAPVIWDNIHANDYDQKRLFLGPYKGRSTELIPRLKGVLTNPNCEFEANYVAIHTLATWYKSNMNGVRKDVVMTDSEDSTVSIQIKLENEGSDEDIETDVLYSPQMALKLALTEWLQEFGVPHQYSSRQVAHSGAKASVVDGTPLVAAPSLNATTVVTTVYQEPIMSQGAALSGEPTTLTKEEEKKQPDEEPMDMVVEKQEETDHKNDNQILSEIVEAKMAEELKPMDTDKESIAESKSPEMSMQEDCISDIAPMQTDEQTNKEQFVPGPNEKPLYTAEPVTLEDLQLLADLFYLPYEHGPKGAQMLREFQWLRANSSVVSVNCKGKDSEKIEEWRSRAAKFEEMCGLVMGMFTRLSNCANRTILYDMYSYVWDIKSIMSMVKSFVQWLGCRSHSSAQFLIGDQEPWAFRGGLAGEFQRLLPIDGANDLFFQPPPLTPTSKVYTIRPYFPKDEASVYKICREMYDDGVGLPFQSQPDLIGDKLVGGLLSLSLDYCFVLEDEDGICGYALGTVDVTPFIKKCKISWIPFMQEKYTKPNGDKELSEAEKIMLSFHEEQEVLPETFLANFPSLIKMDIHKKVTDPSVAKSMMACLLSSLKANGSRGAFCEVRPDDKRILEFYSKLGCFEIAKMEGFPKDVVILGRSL
In words: peptide or protein array; Active Motif MODified Histone Peptide Array (384 modified histone peptides in duplicate, on the array); 100 nM protein in 20 mM Tris pH 7.5, 1 mM DTT, 0.5 mg/mL BSA, RT 1 hour; detected by anti-His6 antibody (also C-term tag antibody) and IR-800 secondary antibody. Conditions: both partners purified.

B1: histone H4 1-19 peptide, K5,8,12,16Ac (peptide, UniProt P62805 2-20, looked up)
peptide: SGRGKGGKGLGKGGAKRHR
modifications: acetyl-lysine at K5, K8, K12 and K16
notes: histone H4 tail peptide, residues 1-19; also called H4 1-19 K5,8,12,16Ac; H4K^5,8,12,16Ac; source: bought: Active Motif MODified Histone Peptide Array (peptide on the array)
With B1, the binding result was “binds”.
